# Data taken from the supplement of paper PMC9112550, “Optimization of the antimicrobial peptide Bac7 by deep mutational scanning” (BMC Biology, 2022).
# Test system: Escherichia coli TOP10
# Test: shrunken log2 fold change of peptide-encoding DNA abundance (4.5 h post-induction vs induction); higher = less antimicrobial activity (less host growth inhibition)
# Details: time post-induction: 4.5 h; library: site-saturation at positions 5, 18, 19, 20
# 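Also: peptides expressed intracellularly from a pBAD plasmid library in pooled LB shake-flask culture, induced with 0.3% L-arabinose, DNA abundance read by NGS, three biological replicates, DESeq2 with apeglm shrinkage.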
row,Sequence,shrunken log2 fold change
1,RRIRARPPRLPRPRPRPPGWPRP,1.22
2,RRIRSRPPRLPRPRPRPNFCPRP,0.0353
3,RRIRPRPPRLPRPRPRPPNMPRP,-0.0209
4,RRIRMRPPRLPRPRPRPFMMPRP,-0.113
5,RRIRPRPPRLPRPRPRPFQCPRP,-0.0376
6,RRIRPRPPRLPRPRPRPLKWPRP,0.398
7,RRIRFRPPRLPRPRPRPTEVPRP,-0.0247
8,RRIRIRPPRLPRPRPRPCSAPRP,-0.392
9,RRIRGRPPRLPRPRPRPEFQPRP,0.226
10,RRIRPRPPRLPRPRPRPNPAPRP,0.234
11,RRIRYRPPRLPRPRPRPMYEPRP,-0.101
12,RRIRFRPPRLPRPRPRPLRWPRP,0.59
13,RRIRIRPPRLPRPRPRPLPRPRP,0.2
14,RRIRWRPPRLPRPRPRPCWVPRP,-0.116
15,RRIRPRPPRLPRPRPRPRDYPRP,0.144
16,RRIRRRPPRLPRPRPRPPHCPRP,1.08
17,RRIRHRPPRLPRPRPRPCPNPRP,-0.00414
18,RRIRQRPPRLPRPRPRPNLHPRP,-0.255
19,RRIRLRPPRLPRPRPRPWIAPRP,0.0439
20,RRIRNRPPRLPRPRPRPQRPPRP,0.206
21,RRIRQRPPRLPRPRPRPVDDPRP,-0.0578
22,RRIRHRPPRLPRPRPRPYCGPRP,0.113

row,Sequence,shrunken log2 fold change
1,RRIRRRPPRLPRPRPRPTCLPRP,0.099
2,RRIRTRPPRLPRPRPRPYELPRP,-0.854
3,RRIRSRPPRLPRPRPRPKGVPRP,0.0137
4,RRIRNRPPRLPRPRPRPCEEPRP,-0.0104
5,RRIRLRPPRLPRPRPRPMWDPRP,0.0295
6,RRIRSRPPRLPRPRPRPVQSPRP,-0.0536
7,RRIRPRPPRLPRPRPRPQDMPRP,-0.39
8,RRIRHRPPRLPRPRPRPTKMPRP,0.0724
9,RRIRFRPPRLPRPRPRPHQTPRP,0.0857
10,RRIRSRPPRLPRPRPRPEDAPRP,0.821
11,RRIRYRPPRLPRPRPRPHWRPRP,-0.0836
12,RRIRVRPPRLPRPRPRPICAPRP,-0.167
13,RRIRKRPPRLPRPRPRPVKVPRP,0.432
14,RRIRPRPPRLPRPRPRPMKCPRP,-0.00631
15,RRIRVRPPRLPRPRPRPCPWPRP,0.0617
16,RRIRPRPPRLPRPRPRPSLEPRP,0.0508
17,RRIRIRPPRLPRPRPRPMLVPRP,0.0625
18,RRIRHRPPRLPRPRPRPCSAPRP,-0.473
19,RRIRLRPPRLPRPRPRPFMQPRP,0.0179
20,RRIRNRPPRLPRPRPRPQWRPRP,0.179
21,RRIRDRPPRLPRPRPRPRCGPRP,0.565
22,RRIRPRPPRLPRPRPRPYLQPRP,-0.831

row,Sequence,shrunken log2 fold change
1,RRIRMRPPRLPRPRPRPMRMPRP,0.759
2,RRIRNRPPRLPRPRPRPVKSPRP,0.00699
3,RRIRTRPPRLPRPRPRPMKQPRP,-0.0631
4,RRIRWRPPRLPRPRPRPDPPPRP,0.575
5,RRIRRRPPRLPRPRPRPPSDPRP,0.79
6,RRIRSRPPRLPRPRPRPHTRPRP,-0.453
7,RRIRNRPPRLPRPRPRPGKMPRP,-0.203
8,RRIRGRPPRLPRPRPRPYKVPRP,-0.0404
9,RRIRKRPPRLPRPRPRPEHRPRP,-0.0428
10,RRIRFRPPRLPRPRPRPHETPRP,-0.347
11,RRIRRRPPRLPRPRPRPKDHPRP,0.0887
12,RRIRDRPPRLPRPRPRPPYPPRP,0.109
13,RRIRGRPPRLPRPRPRPCVYPRP,0.486
14,RRIRHRPPRLPRPRPRPQFPPRP,-0.157
15,RRIRERPPRLPRPRPRPKEAPRP,0.324
16,RRIRYRPPRLPRPRPRPNDSPRP,-0.349
17,RRIRFRPPRLPRPRPRPWPYPRP,0.0261
18,RRIRLRPPRLPRPRPRPCAGPRP,0.0736
19,RRIRWRPPRLPRPRPRPHEQPRP,0.718
20,RRIRCRPPRLPRPRPRPLRFPRP,0.0668
21,RRIRRRPPRLPRPRPRPHVYPRP,-0.341
22,RRIRMRPPRLPRPRPRPYANPRP,-0.139

row,Sequence,shrunken log2 fold change
1,RRIRPRPPRLPRPRPRPYMRPRP,-0.000384
2,RRIRPRPPRLPRPRPRPIHFPRP,-0.241
3,RRIRYRPPRLPRPRPRPRSEPRP,0.0596
4,RRIRWRPPRLPRPRPRPHGFPRP,0.407
5,RRIRLRPPRLPRPRPRPVIPPRP,-0.0331
6,RRIRYRPPRLPRPRPRPEWGPRP,-0.169
7,RRIRRRPPRLPRPRPRPIKHPRP,0.0383
8,RRIRRRPPRLPRPRPRPSYVPRP,-0.0434
9,RRIRFRPPRLPRPRPRPPAHPRP,0.613
10,RRIRFRPPRLPRPRPRPIVEPRP,0.0776
11,RRIRLRPPRLPRPRPRPERVPRP,0.0357
12,RRIRWRPPRLPRPRPRPAWHPRP,0.162
13,RRIRRRPPRLPRPRPRPWTKPRP,0.124
14,RRIRNRPPRLPRPRPRPKRMPRP,-0.056
15,RRIRQRPPRLPRPRPRPQDDPRP,-0.0165
16,RRIRCRPPRLPRPRPRPQEIPRP,-0.0405
17,RRIRERPPRLPRPRPRPIAIPRP,-0.00127
18,RRIRSRPPRLPRPRPRPRNWPRP,0.318
19,RRIRNRPPRLPRPRPRPTELPRP,-0.0232
20,RRIRQRPPRLPRPRPRPRVCPRP,0.303
21,RRIRNRPPRLPRPRPRPDRMPRP,-0.282
22,RRIRIRPPRLPRPRPRPDDSPRP,-0.267

row,Sequence,shrunken log2 fold change
1,RRIRSRPPRLPRPRPRPTDDPRP,-0.0687
2,RRIRQRPPRLPRPRPRPKDRPRP,-0.115
3,RRIRGRPPRLPRPRPRPYHVPRP,-0.0512
4,RRIRYRPPRLPRPRPRPDDPPRP,-0.239
5,RRIRMRPPRLPRPRPRPDWIPRP,-0.017
6,RRIRTRPPRLPRPRPRPWQVPRP,-0.0764
7,RRIRYRPPRLPRPRPRPEWSPRP,-0.0724
8,RRIRCRPPRLPRPRPRPSTWPRP,-0.0554
9,RRIRYRPPRLPRPRPRPRNKPRP,-0.661
10,RRIRFRPPRLPRPRPRPLDAPRP,0.0999
11,RRIRHRPPRLPRPRPRPGRCPRP,0.127
12,RRIRRRPPRLPRPRPRPIFCPRP,0.0473
13,RRIRVRPPRLPRPRPRPDHRPRP,-0.272
14,RRIRKRPPRLPRPRPRPKHKPRP,0.362
15,RRIRTRPPRLPRPRPRPAQCPRP,0.18
16,RRIRDRPPRLPRPRPRPEDMPRP,1.81
17,RRIRFRPPRLPRPRPRPMLLPRP,-0.128
18,RRIRTRPPRLPRPRPRPQGRPRP,-0.0678
19,RRIRPRPPRLPRPRPRPQTTPRP,-0.161
20,RRIRARPPRLPRPRPRPLENPRP,0.595
21,RRIRERPPRLPRPRPRPHKRPRP,3.62
